# Literature values as cited in patent publication US6689582B1, “Polynucleotide molecules encoding proteins having proteinase inhibitor activity” (Bayer Pharmaceuticals Corporation, priority 1999, dated 2004).
# Like-named read-outs stand apart in the source and are kept apart here. Ends that are not written are not given here.
# Tests used:
# proteinase 3 = biological target: T1, proteinase 3 (Homo sapiens, UniProt P24158)
# T1 sequence (P24158 28-256): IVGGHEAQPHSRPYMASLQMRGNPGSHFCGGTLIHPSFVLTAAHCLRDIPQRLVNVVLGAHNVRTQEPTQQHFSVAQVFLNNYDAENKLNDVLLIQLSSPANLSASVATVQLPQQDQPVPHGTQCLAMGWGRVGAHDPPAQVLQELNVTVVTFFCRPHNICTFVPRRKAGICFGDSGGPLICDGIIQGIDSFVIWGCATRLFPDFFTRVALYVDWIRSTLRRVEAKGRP
# cathepsin G = biological target: T2, cathepsin G (Homo sapiens, UniProt P08311)
# T2 sequence (P08311 21-255): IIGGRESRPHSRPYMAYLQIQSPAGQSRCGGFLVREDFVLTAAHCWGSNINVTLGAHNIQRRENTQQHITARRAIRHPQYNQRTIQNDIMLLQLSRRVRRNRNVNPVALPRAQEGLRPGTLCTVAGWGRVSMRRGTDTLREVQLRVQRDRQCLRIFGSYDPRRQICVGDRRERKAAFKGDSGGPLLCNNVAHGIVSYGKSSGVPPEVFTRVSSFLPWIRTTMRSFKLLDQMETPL
# plasma kallikrein = plasma kallikrein (Homo sapiens, UniProt P03952)
# thrombin = thrombin (Homo sapiens, UniProt P00734)
# leukocyte elastase = biological target: T3, leukocyte elastase (Homo sapiens, UniProt P08246)
# T3 sequence (P08246 30-267): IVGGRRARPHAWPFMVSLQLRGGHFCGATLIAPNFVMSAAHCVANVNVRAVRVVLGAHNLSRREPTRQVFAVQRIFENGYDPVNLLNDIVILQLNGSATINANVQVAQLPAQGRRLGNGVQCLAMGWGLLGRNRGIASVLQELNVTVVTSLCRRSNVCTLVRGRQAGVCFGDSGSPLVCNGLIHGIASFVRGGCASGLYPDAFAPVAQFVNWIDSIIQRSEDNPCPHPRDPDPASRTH
# Sequence of plasma kallikrein (P03952 20-638, species assumed): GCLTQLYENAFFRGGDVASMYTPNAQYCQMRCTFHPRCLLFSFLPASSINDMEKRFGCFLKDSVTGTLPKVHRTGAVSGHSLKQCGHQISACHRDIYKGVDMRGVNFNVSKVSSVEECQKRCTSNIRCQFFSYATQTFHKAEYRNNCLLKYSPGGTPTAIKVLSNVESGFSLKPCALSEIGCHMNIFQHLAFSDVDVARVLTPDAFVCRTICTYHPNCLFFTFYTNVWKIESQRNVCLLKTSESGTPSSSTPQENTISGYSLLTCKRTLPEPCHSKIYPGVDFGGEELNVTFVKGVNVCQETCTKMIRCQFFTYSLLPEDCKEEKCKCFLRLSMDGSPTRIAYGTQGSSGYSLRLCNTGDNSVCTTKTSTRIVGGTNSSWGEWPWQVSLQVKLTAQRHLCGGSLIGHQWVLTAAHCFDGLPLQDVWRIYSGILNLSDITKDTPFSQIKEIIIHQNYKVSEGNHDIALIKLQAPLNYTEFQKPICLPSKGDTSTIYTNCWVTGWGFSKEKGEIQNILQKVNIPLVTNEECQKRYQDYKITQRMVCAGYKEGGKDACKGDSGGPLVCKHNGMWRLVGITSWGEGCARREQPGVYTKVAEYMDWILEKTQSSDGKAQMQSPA
molecule,measurement,setting,value
"elafin: member of the mucous proteinase inhibitor family (AQEPVKGPVSTKPGSCPIILIRCAMLNPPNRCLKDTDCPGIKKCCEGSCGMACFVPQ; ends and bridges not checked; cysteine pairing not given here; UniProt P19957 61-117, looked up)",inhibition of proteinase 3 (in words),proteinase 3,not
"Alpha-1-proteinase: serpin family serine proteinase inhibitor, major serum inhibitor of elastase and cathepsin G",inhibition of cathepsin G (in words),cathepsin G,inhibit
same,inhibition of cathepsin G (in words),cathepsin G; listed as Alpha 1-proteinase inhibitor,potent inhibitor
"APP KD variant (T11D, P13H, M17A, I18H, S19P and F34Y): phage display derived plasma kallikrein inhibitor differing from APP KD at 6 key residues (VREVCSEQAEDGHCRAAHPRWYFDVTEGKCAPFYYGGCGGNRNNFDTEEYCMAVC; ends and bridges not checked; cysteine pairing not given here)",Ki,plasma kallikrein,~15 pM
same,increase in binding affinity to plasma kallikrein compared to wild-type APP KD,plasma kallikrein,"more than 10,000 fold"
alpha 1-proteinase inhibitor [Arg358]: P1 variant of alpha 1-proteinase inhibitor,inhibition of thrombin (in words),thrombin,potent inhibitor
same,inhibition of leukocyte elastase (in words),leukocyte elastase,not
"SLPI: member of the mucous proteinase inhibitor family (protein, UniProt P03973 26-132, looked up) Antileukoproteinase: SGKSFKAGVCPPKKSAQCLRYKKPECQSDWQCPGKKRCCPDTCGIKCLDPVDTPNPTRRKPGKCPVTYGQCLMLNPPNFCEMDGQCKRDLKCCMGMCGKSCVSPVKA",inhibition of proteinase 3 (in words),proteinase 3,not
"placental bikunin: human Kunitz family inhibitor, potent inhibitor of plasmin (protein, UniProt O43291 28-252, looked up) Kunitz-type protease …: ADRERSIHDFCLVSKVVGRCRASMPRWWYNVTDGSCQLFVYGGCDGNSNNYLTKEECLKKCATVTENATGDLATSRNAADSSVPSAPRRQDSEDHSSDMFNYEEYCTANAVTGPCRASFPRWYFDVERNSCNNFIYGGCRGNKNSYRSEEACMLRCFRQQENPPLPLGSKVVVLAGLFVMVLILFLGASMVYLIRVARRNQERALRTVWSSGDDKEQLVKNTYVL",inhibition of leukocyte elastase (in words),leukocyte elastase,not
"Alpha-1-antichymotrypsin: serpin family proteinase inhibitor, physiological cathepsin G inhibitor (protein, UniProt P01011 24-423, looked up) Alpha-1-antichymotrypsin: HPNSPLDEENLTQENQDRGTHVDLGLASANVDFAFSLYKQLVLKAPDKNVIFSPLSISTALAFLSLGAHNTTLTEILKGLKFNLTETSEAEIHQSFQHLLRTLNQSSDELQLSMGNAMFVKEQLSLLDRFTEDAKRLYGSEAFATDFQDSAAAKKLINDYVKNGTRGKITDLIKDLDSQTMMVLVNYIFFKAKWEMPFDPQDTHQSRFYLSKKKWVMVPMMSLHHLTIPYFRDEELSCTVVELKYTGNASALFILPDQDKMEEVEAMLLPETLKRWRDSLEFREIGELYLPKFSISRDYNLNDILLQLGIEEAFTSKADLSGITGARNLAVSQVVHKAVLDVFEEGTEASAATAVKITLLSALVETRTIVRFNRPFLMIIVPTDTQNIFFMSKVTNPKQA",inhibition of proteinase 3 (in words),proteinase 3,not
